Entries after “also recorded” stand apart in the source; their conditions may differ.

The test system of the test is chromosomally integrated CMV-7tetO luciferase reporter in HeLa X1/6 cells. Kind of test: rtTA activity assay, HeLa X1/6 cells with integrated CMV-7tetO luciferase reporter (Example 1, FIG. 2-3, 5, 14, 15). Format: cell-based. Conditions: for rtTA activation by minocycline (Mc): 0-10000 ng/ml Mc; for rtTA activation by tetracycline (Tc): 0-10000 ng/ml Tc; for basal / background activity in the absence of inducer: no dox or other effector. From the text: To test whether this rtTA optimization reflects a specific adaptation to the viral LTR-2ΔtetO promoter, we assayed rtTA activity with a reporter gene construct in which luciferase expression is under the control of a minimal CMV promoter coupled to an array of seven tetO elements. […] Thus, the observed mutations in rtTA are not virus-specific adaptations, but are general improvements of the Tet-on system. We also assayed rtTA activity in HeLa X1/6 cells that contain chromosomally integrated copies of the CMV-7tetO luciferase reporter construct (FIG. 2C). In these cells, the evolved rtTAs show a similar pattern of activity as with episomal reporter gene constructs in C33A cells. Thus, these mutations improve rtTA activity independent of the type of promoter and the episomal or chromosomal status of the target gene.
The V10 variant needs only 44 ng/ml dox to reach this activity level, which reflects a 23-fold higher dox-sensitivity than the wild-type rtTA.
rtTA activity assay. Two firefly luciferase reporter constructs with different promoter configurations were used. pLTR-2ΔtetO-luc contains the LTR-2ΔtetO promoter derived from the HIV-rtTA molecular clone (Marzio et al. 2001; Marzio et al. 2002). pCMV-7tetO-luc, previously named pUHC13-3 (Gossen et al. 1992), contains seven tetO elements located upstream of a minimal CMV promoter. The plasmid pRL-CMV (PROMEGA®, Madison, Wis., USA), in which the expression of Renilla luciferase is controlled by the CMV promoter, was used as an internal control to allow correction for differences in transfection efficiency.
C33A and HeLa X1/6 cells were grown in 2-cm^2 wells to 60% confluency and transfected by the calcium phosphate precipitation method (Das et al. 1999). C33A cells were transfected with 0.4 ng pCMV-rtTA (wild-type or mutant), 20 ng pLTR-2ΔtetO-luc or pCMV-7tetO-luc, 0.5 ng pRL-CMV, and 980 ng pBluescript as carrier DNA. HeLa X1/6 cells were transfected with 8 ng pCMV-rtTA, 2.5 ng pRL-CMV, and 990 ng pBluescript. The amount of the DNA constructs was optimized for each cell type to keep rtTA-mediated transactivation within the linear range and to avoid squelching of transcription factors. Cells were cultured for 48 hours in the presence of different concentrations of dox, Tc or Mc, and lysed in Passive Lysis Buffer (PROMEGA®). Firefly and Renilla luciferase activities were determined with the dual-luciferase reporter assay (PROMEGA®). The activity of the rtTA variants was calculated as the ratio of the firefly and Renilla luciferase activities, and corrected for between-session variation.
FIG. 2. Novel rtTA variants show increased activity and dox-sensitivity in different Tet systems. The transcriptional activity of rtTA variants was measured in C33A cells transfected with a plasmid carrying the firefly luciferase reporter gene under the control of the viral LTR-2ΔtetO promoter (LTR-2ΔtetO; A) or under the control of a minimal CMV-derived promoter coupled to seven tetO elements (CMV7-tetO; B). Furthermore, rtTA activity was measured in HeLa X1/6 cells (Baron et al. 1997) that contain a chromosomally integrated copy of the CMV-7tetO reporter construct (CMV7tetO-integrated; C, D). Variants V1 to V10 were compared in all three Tet systems (panels A-C) and variants V11 to V18 in the cells with the integrated reporter (panel D). Cells were transfected with the indicated rtTA expression plasmid or pBluescript as a negative control, and a plasmid constitutively expressing Renilla luciferase to correct for differences in transfection efficiency. Cells were cultured in the presence of different dox concentrations (0-1000 ng/ml). The ratio of the firefly and Renilla luciferase activities measured 2 days after transfection reflects the rtTA activity. All values were related to the wild-type (wt) rtTA activity at 1000 ng/ml dox, which was arbitrarily set at 100%. In (C and D), average values of three transfections are shown with error bars indicating the standard deviation.
FIG. 3. […]
For orientation: A reporter such as luciferase makes a cellular process visible.

[1] abbreviates: listed as C68R V9I G138D F86Y A209T.
The mark [2] stands for this setting: listed as S12G F67S V9I G138D F86Y A209T.

B1: V9I C68R G138D F86Y A209T: rtTA variant with these amino acid substitutions (protein)
chain: MSRLDKSKIINSALELLNGVGIEGLTTRKLAQKLGVEQPTLYWHVKNKRALLDALPIEMLDRHHTHFRPLEGESWQDFLRNNAKSYRCALLSHRDGAKVHLGTRPTEKQYETLENQLAFLCQQGFSLENALYALSAVDHFTLGCVLEEQEHQVAKEERETPTTDSMPPLLRQAIELFDRQGAEPAFLFGLELIICGLEKQLKCESGGPTDALDDFDLDMLPADALDDFDLDMLPADALDDFDLDMLPG
With B1, the “basal / background activity in the absence of inducer” value (shortened to “basal / background activity”) is “no or low basal activity”. Moreover, under setting [1], the “rtTA activation by minocycline (Mc)” value is reported as “particularly sensitive for minocycline; also recorded: very sensitive for minocycline”, the “rtTA activation by tetracycline (Tc)” value was “particularly sensitive for tetracycline; also recorded: very sensitive for tetracycline” and the “basal / background activity” value is on record as “low background activity”.

B2: V9I G19M G138D F86Y: rtTA variant with these amino acid substitutions (protein)
chain: MSRLDKSKIINSALELLNMVGIEGLTTRKLAQKLGVEQPTLYWHVKNKRALLDALPIEMLDRHHTHFCPLEGESWQDFLRNNAKSYRCALLSHRDGAKVHLGTRPTEKQYETLENQLAFLCQQGFSLENALYALSAVDHFTLGCVLEEQEHQVAKEERETPTTDSMPPLLRQAIELFDRQGAEPAFLFGLELIICGLEKQLKCESGGPADALDDFDLDMLPADALDDFDLDMLPADALDDFDLDMLPG
As to B2, the “basal / background activity” value is on record as “no or low basal activity”.

B3: V9I S12G F67S G138D F86Y A209T: rtTA variant with these amino acid substitutions (protein)
chain: MSRLDKSKIINGALELLNGVGIEGLTTRKLAQKLGVEQPTLYWHVKNKRALLDALPIEMLDRHHTHSCPLEGESWQDFLRNNAKSYRCALLSHRDGAKVHLGTRPTEKQYETLENQLAFLCQQGFSLENALYALSAVDHFTLGCVLEEQEHQVAKEERETPTTDSMPPLLRQAIELFDRQGAEPAFLFGLELIICGLEKQLKCESGGPTDALDDFDLDMLPADALDDFDLDMLPADALDDFDLDMLPG
Turning to B3, the “basal / background activity” value is reported as “no or low basal activity”. Under setting [2], the “rtTA activation by minocycline (Mc)” value is “particularly sensitive for minocycline; also recorded: very sensitive for minocycline”, the “rtTA activation by tetracycline (Tc)” value is recorded as “very sensitive for tetracycline” and the “basal / background activity” value was “low background activity”. In addition, the “rtTA activation by tetracycline (Tc)” value (listed as 512G F67S V9I G138D F86Y A209T) is reported as “particularly sensitive for tetracycline”.

B4: V9I G19M F67S G138D F86Y A209T: rtTA variant with these amino acid substitutions (protein)
chain: MSRLDKSKIINSALELLNMVGIEGLTTRKLAQKLGVEQPTLYWHVKNKRALLDALPIEMLDRHHTHSCPLEGESWQDFLRNNAKSYRCALLSHRDGAKVHLGTRPTEKQYETLENQLAFLCQQGFSLENALYALSAVDHFTLGCVLEEQEHQVAKEERETPTTDSMPPLLRQAIELFDRQGAEPAFLFGLELIICGLEKQLKCESGGPTDALDDFDLDMLPADALDDFDLDMLPADALDDFDLDMLPG
B4: the “rtTA activation by minocycline (Mc)” value was “particularly sensitive for minocycline”, the “rtTA activation by tetracycline (Tc)” value is listed as “particularly sensitive for tetracycline” and the “basal / background activity” value is listed as “no or low basal activity”.

B5: V9I G19M F67S G138D F86Y: rtTA variant with these amino acid substitutions (protein)
chain: MSRLDKSKIINSALELLNMVGIEGLTTRKLAQKLGVEQPTLYWHVKNKRALLDALPIEMLDRHHTHSCPLEGESWQDFLRNNAKSYRCALLSHRDGAKVHLGTRPTEKQYETLENQLAFLCQQGFSLENALYALSAVDHFTLGCVLEEQEHQVAKEERETPTTDSMPPLLRQAIELFDRQGAEPAFLFGLELIICGLEKQLKCESGGPADALDDFDLDMLPADALDDFDLDMLPADALDDFDLDMLPG
For B5, the “basal / background activity” value is “no or low basal activity”.

B6: V9I E37Q G138D F86Y: rtTA variant with these amino acid substitutions (protein)
chain: MSRLDKSKIINSALELLNGVGIEGLTTRKLAQKLGVQQPTLYWHVKNKRALLDALPIEMLDRHHTHFCPLEGESWQDFLRNNAKSYRCALLSHRDGAKVHLGTRPTEKQYETLENQLAFLCQQGFSLENALYALSAVDHFTLGCVLEEQEHQVAKEERETPTTDSMPPLLRQAIELFDRQGAEPAFLFGLELIICGLEKQLKCESGGPADALDDFDLDMLPADALDDFDLDMLPADALDDFDLDMLPG
Turning to B6, the “basal / background activity” value was “no or low basal activity”.

B7: V9I G19M G138D F86Y A209T: rtTA variant with these amino acid substitutions (protein)
chain: MSRLDKSKIINSALELLNMVGIEGLTTRKLAQKLGVEQPTLYWHVKNKRALLDALPIEMLDRHHTHFCPLEGESWQDFLRNNAKSYRCALLSHRDGAKVHLGTRPTEKQYETLENQLAFLCQQGFSLENALYALSAVDHFTLGCVLEEQEHQVAKEERETPTTDSMPPLLRQAIELFDRQGAEPAFLFGLELIICGLEKQLKCESGGPTDALDDFDLDMLPADALDDFDLDMLPADALDDFDLDMLPG
Regarding B7, the “rtTA activation by minocycline (Mc)” value was “particularly sensitive for minocycline”, the “rtTA activation by tetracycline (Tc)” value is “particularly sensitive for tetracycline” and the “basal / background activity” value is on record as “no or low basal activity”.

B8: V9I E37Q G138D F86Y A209T: rtTA variant with these amino acid substitutions (protein)
chain: MSRLDKSKIINSALELLNGVGIEGLTTRKLAQKLGVQQPTLYWHVKNKRALLDALPIEMLDRHHTHFCPLEGESWQDFLRNNAKSYRCALLSHRDGAKVHLGTRPTEKQYETLENQLAFLCQQGFSLENALYALSAVDHFTLGCVLEEQEHQVAKEERETPTTDSMPPLLRQAIELFDRQGAEPAFLFGLELIICGLEKQLKCESGGPTDALDDFDLDMLPADALDDFDLDMLPADALDDFDLDMLPG
Turning to B8, the “rtTA activation by minocycline (Mc)” value was “particularly sensitive for minocycline”, the “rtTA activation by tetracycline (Tc)” value is listed as “particularly sensitive for tetracycline” and the “basal / background activity” value is listed as “no or low basal activity”.

B9: V9I S12G F67S G138D F86Y: rtTA variant with these amino acid substitutions (protein)
chain: MSRLDKSKIINGALELLNGVGIEGLTTRKLAQKLGVEQPTLYWHVKNKRALLDALPIEMLDRHHTHSCPLEGESWQDFLRNNAKSYRCALLSHRDGAKVHLGTRPTEKQYETLENQLAFLCQQGFSLENALYALSAVDHFTLGCVLEEQEHQVAKEERETPTTDSMPPLLRQAIELFDRQGAEPAFLFGLELIICGLEKQLKCESGGPADALDDFDLDMLPADALDDFDLDMLPADALDDFDLDMLPG
B9: the “basal / background activity” value is listed as “no or low basal activity”.

The record behind these values is patent USRE49583E1, “Inducible expression systems” (priority 2005, dated 2023).
